This is an account of results in article PMC11336141.

For the experiment, the target named is human somatostatin receptor 2, Tango construct (human) (UniProt P30874).
human somatostatin receptor 2, Tango construct (human), sequence (P30874 whole entry): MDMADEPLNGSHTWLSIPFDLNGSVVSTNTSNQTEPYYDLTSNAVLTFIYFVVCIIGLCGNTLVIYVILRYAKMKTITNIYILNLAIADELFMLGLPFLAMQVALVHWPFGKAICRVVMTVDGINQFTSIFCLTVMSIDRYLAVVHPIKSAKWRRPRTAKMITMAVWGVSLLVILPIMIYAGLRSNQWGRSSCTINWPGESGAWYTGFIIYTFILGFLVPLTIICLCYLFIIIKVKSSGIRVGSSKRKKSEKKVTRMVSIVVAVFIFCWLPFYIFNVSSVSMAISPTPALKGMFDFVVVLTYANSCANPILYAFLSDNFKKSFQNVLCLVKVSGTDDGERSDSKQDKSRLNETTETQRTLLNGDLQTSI

octreotide (peptide) had an EC50, PRESTO-Tango β-arrestin recruitment assay of 0.9 nM.
